Read-outs that look alike come from different tables or passages of the source.
T1: RAD51 (purified) (UniProt Q06609 1-339)
T1 sequence (looked up): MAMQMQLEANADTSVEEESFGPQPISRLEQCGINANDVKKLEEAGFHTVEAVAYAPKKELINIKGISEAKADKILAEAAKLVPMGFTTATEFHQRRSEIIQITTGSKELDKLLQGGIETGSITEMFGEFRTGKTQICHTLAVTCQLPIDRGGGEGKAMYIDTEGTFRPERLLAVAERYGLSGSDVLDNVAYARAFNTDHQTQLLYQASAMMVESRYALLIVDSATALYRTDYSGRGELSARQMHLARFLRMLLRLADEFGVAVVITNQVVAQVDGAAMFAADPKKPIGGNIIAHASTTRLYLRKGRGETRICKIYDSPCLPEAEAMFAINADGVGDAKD

B1: 2XMBP-BRC1–4-DBD (domain or fragment, human)
chain: WAGLLGPISNHSFGGSFRTASNKEIKLSEHNIKKSKMFFKDIEEQYPTSLACVEIVNTLALDNQKKLSKPQSINTVSAHLQSSVVVSDCKNSHITPQMLFSKQDFNSNHNLTPSQKAEITELSTILEESGSQFEFTQFRKPSYILQKSTFEVPENQMTILKTTSEECRDADLHVIMNAPSIGQVDSSKQFEGTVEIKRKFAGLLKNDCNKSASGYLTDENEVGFRGFYSAHGTKLNVSTEALQKAVKLFSDIENISEETSAEVHPISLSSSKCHDSVVSMFKIENHNDKTVSEKNNKCQLILQNNIEMTTGTFVEEITENYKRNTENEDNKYTAASRNSHNLEFDGSDSSKNDTVCIHKDETDLLFTDQHNICLKLSGQFMKEGNTQIKEDLSDLTFLEVAKAQEACHGNTSNKEQLTATKTEQNIKDFETSDTFFQTASGKNISVAKESFNKIVNFFDQKPEELHNFSLNSELHSDIRKNKMDILSYEETDIVKHKILKESVPVGTGNQLVTFQGQPERDEKIKEPTLLGFHTASGKKVKIAKESLDKVKNLFDEKEQGTSEITSFSHQWAKTLKYREACKDLELACETIEITAAPGGGSPYLSQFQQDKQQLVLGTKVSLVENIHVLGKEQASPKNVKMEIGKTETFSDVPVKTNIEVCSTYSKDSENYFETEAVEIAKAFMEDDELTDSKLPSHATHSLFTCPENEEMVLSNSRIGKRRGEPLILVGEPSIKRNLLNEFDRIIENQEKSLKASKSTPDGTIKDRRLFMHHVSLEPITCVPFRTTKERQEIQNPNFTAPGQEFLSKSHLYEHLTLEKSSSNLAVSGHPFYQVSATRNEKMRHLITTGRPTKVFVPPFKTKSHFHRVEQCVRNINLEENRQKQNIDGHGSDDSKNKINDNEIHQFNKNNSNQAVAVTFTKCEEEPLDLITSLQNARDIQDMRIKKKQRQRVFPQPGSLYLAKTSTLPRISLKAAVGGQVPSACSHKQLYTYGVSKHCIKINSKNAESFQFHTEDYFGKESLWTGKGIQLADGGWLIPSNDGKAGKEEFYRALCDTPGVDPKLISRIWVYNHYRWIIWKLAAMECAFPKEFANRCLSPERVLLQLKYRYDTEIDRSRRSAIKKIMERDDTAAKTLVLCVSDIISLSANISETSSNKTSSADTQKVAIIELTDGWYAVKAQLDPPLLAVLKNGRLTVGQKIILHGAELVGSPDACTPLEAPESLMLKISANSTRPARWYTKLGFFPDPRPFPLPLSSLFSDGGNVGCVDVIIQRAYPIQWMEKTSSGLYIFRNEREEEKEAAKYVEAQQKRLEALFTKIQEEFEEHEENTTKPYLPSRALTRQQVRALQDGAELYEAVKNAADPAYLEGYFSEEQLRALNNHRQMLNDKKQAQIQLEIRKAMESAEQKEQGLSRDVTTVWKLRIVSYSKKEKDSVILSIWRPSSDLYSLLTEGKRYRIYHLATSKSKSKSERANIQLAATKKTQYQQLPVSDEILFQIYQPREPLHFSKFLDPDFQPSCSEVDLIGFVVSVVKKTGLAPFVYLSDECYNLLAIKFWIDLNEDIIKPHMLIAASNLQWRPESKSGLLTLFAGDFSVFSASPKEGHFQETFNKMKNTVENIDILCNEAENKLMHILHANDPKWSTPTKDCTSGPYTAQIIPGTGNKLLMSSPNCEIYYQSPLSLCMAKRKSVSTPVSAQMTSKSCKGEKEIDDQKNCKKRRALDFLSRLPLPPPVSPICTFVSPAAQKAFQPPRSCGTKYETPIKKKELNSPQMTPFKKFNEISLLESNSIADEELALINTQALLSGSTGEKQFISVSESTRTAPTSSEDYLRLKRRCTTSLIKEQESSQASTEECEKNKQDTITTKKYI
B2: 2XMBP-BRC4-DBD (domain or fragment, human)
chain: PVGTGNQLVTFQGQPERDEKIKEPTLLGFHTASGKKVKIAKESLDKVKNLFDEKEQGTSEITSFSHQWAKTLKYREACKDLELACETIEITAAPGGGSPYLSQFQQDKQQLVLGTKVSLVENIHVLGKEQASPKNVKMEIGKTETFSDVPVKTNIEVCSTYSKDSENYFETEAVEIAKAFMEDDELTDSKLPSHATHSLFTCPENEEMVLSNSRIGKRRGEPLILVGEPSIKRNLLNEFDRIIENQEKSLKASKSTPDGTIKDRRLFMHHVSLEPITCVPFRTTKERQEIQNPNFTAPGQEFLSKSHLYEHLTLEKSSSNLAVSGHPFYQVSATRNEKMRHLITTGRPTKVFVPPFKTKSHFHRVEQCVRNINLEENRQKQNIDGHGSDDSKNKINDNEIHQFNKNNSNQAVAVTFTKCEEEPLDLITSLQNARDIQDMRIKKKQRQRVFPQPGSLYLAKTSTLPRISLKAAVGGQVPSACSHKQLYTYGVSKHCIKINSKNAESFQFHTEDYFGKESLWTGKGIQLADGGWLIPSNDGKAGKEEFYRALCDTPGVDPKLISRIWVYNHYRWIIWKLAAMECAFPKEFANRCLSPERVLLQLKYRYDTEIDRSRRSAIKKIMERDDTAAKTLVLCVSDIISLSANISETSSNKTSSADTQKVAIIELTDGWYAVKAQLDPPLLAVLKNGRLTVGQKIILHGAELVGSPDACTPLEAPESLMLKISANSTRPARWYTKLGFFPDPRPFPLPLSSLFSDGGNVGCVDVIIQRAYPIQWMEKTSSGLYIFRNEREEEKEAAKYVEAQQKRLEALFTKIQEEFEEHEENTTKPYLPSRALTRQQVRALQDGAELYEAVKNAADPAYLEGYFSEEQLRALNNHRQMLNDKKQAQIQLEIRKAMESAEQKEQGLSRDVTTVWKLRIVSYSKKEKDSVILSIWRPSSDLYSLLTEGKRYRIYHLATSKSKSKSERANIQLAATKKTQYQQLPVSDEILFQIYQPREPLHFSKFLDPDFQPSCSEVDLIGFVVSVVKKTGLAPFVYLSDECYNLLAIKFWIDLNEDIIKPHMLIAASNLQWRPESKSGLLTLFAGDFSVFSASPKEGHFQETFNKMKNTVENIDILCNEAENKLMHILHANDPKWSTPTKDCTSGPYTAQIIPGTGNKLLMSSPNCEIYYQSPLSLCMAKRKSVSTPVSAQMTSKSCKGEKEIDDQKNCKKRRALDFLSRLPLPPPVSPICTFVSPAAQKAFQPPRSCGTKYETPIKKKELNSPQMTPFKKFNEISLLESNSIADEELALINTQALLSGSTGEKQFISVSESTRTAPTSSEDYLRLKRRCTTSLIKEQESSQASTEECEKNKQDTITTKKYI

Legend:
[1] = target: T1, RAD51 (purified); assay: pull-down
[2] = target: T1, RAD51 (purified); assay: pull-down; remark: listed apart in the source

Row | Binder | binding result [1] | binding result [2]
1 | B1 | binds | –
2 | B2 | – | binds

Source: PMC4914107 (Nucleic Acids Research, 2016)
